Measured values from article PMC12742849 (Protein & Cell, 2025).

Assays:
[1] = target: riboflavin biosynthesis protein D (RibD), native, from Francisella novicida (Francisella novicida); test: cryo-EM structure
[2] = target: enolase, native, from Francisella novicida (Francisella novicida); test: cryo-EM structure

Row | Substance | stoichiometry N [1] | stoichiometry N [2]
1 | riboflavin biosynthesis protein D (RibD), native, from Francisella novicida (enzyme) | 2 | 
2 | enolase, native, from Francisella novicida (enzyme) |  | 2
